Measurements from patent US20220323445A1, “REDUCING IMMUNOGENICITY TO PEGLOTICASE” (Horizon Therapeutics Ireland DAC, priority 2020, published 2022).

System: patients with uncontrolled gout
Test: Health Assessment Questionnaire (HAQ-DI, HAQ pain, HAQ health), open-label study
Type: in vivo, human
Design: key to HAQ-Health, Observed, Median / HAQ-Health, Change from Baseline, Median: 0-100 scale; 0 = very well, 100 = very poor health; key to HAQ-DI, Observed, Median / HAQ-DI, Change from Baseline, Median: HAQ-DI scale 0-3; 0 = no difficulty, 3 = unable to do
Settings: mITT
Method: Quality-of-Life Assessment: The HAQ was administered at the Screening and Week −4 or week −6 (prior to the first dose of MTX) Visits during the MTX Run-in Period for the open-label and randomized studies, respectively; prior to pegloticase infusion at the Day 1 and Weeks 14, 24 and 36 Visits or at the Day 1 and weeks 6, 14, 20, 24, 30, 36, and 44 visits during the Pegloticase+IMM Period for the open-label and randomized studies, respectively; at the End of Pegloticase Infusions Visit (if applicable), the Week 52/End of Study/Early Termination Visit and the Post Treatment Periods 3 and 6 Month Follow-up Visits (open-label study). The HAQ-DI is a self-report functional status instrument that can be filled out by a subject in less than 5 minutes and requires 1 minute to score. The index measures disability over the past week by asking a total of 20 questions covering 8 domains of function: dressing and grooming, arising, eating, walking, hygiene, reach, grip, and usual activities. There are at least 2 questions in each domain and the 8 domains represent a comprehensive set of functional activities. The HAQ-DI is calculated by scoring the answer to each question in the HAQ from 0 to 3, with 0 representing the ability to do without any difficulty, and 3 representing inability to do. Any activity that requires assistance from another individual or requires the use of an assistive device raises a 0 or 1 score to a 2. The highest score for each of the 8 domains is summed (range from 0 to 24) and divided by 8 to yield, on a scale with 25 possible values, a Functional Disability Index with a range from 0 to 3. The disability index is based on the number of domains answered and is computed only if the subject completes answers to at least 6 domains. The HAQ pain scale asks subjects to record how much pain they have had in the past week on a scale of 0 to 100, where zero represents “no pain” and 100 represents “severe pain”. The HAQ health scale is a measure of overall health. Subjects are asked to rate how well they are doing on a score of 0 to 100, where zero represents “very well” and 100 represents “very poor” health.

[1] = Day 1 vs Methotrexate Baseline, n=13
[2] = Early Termination Visit vs Methotrexate Baseline, n=3
[3] = Early Termination Visit vs Pegloticase Baseline, n=3
[4] = End of Pegloticase Infusions Visit vs Methotrexate Baseline, n=2
[5] = End of Pegloticase Infusions Visit vs Pegloticase Baseline, n=2
[6] = End of Pegloticase Infusions Visit, n=2
[7] = Week 14 vs Methotrexate Baseline, n=14

B1: pegloticase (protein)
chain: TYKKNDEVEFVRTGYGKDMIKVLHIQRDGKYHSIKEVATTVQLTLSSKKDYLHGDNSDVIPTDTIKNTVNVLAKFKGIKSIETFAVTICEHFLSSFKHVIRAQVYVEEVPWKRFEKNGVKHVHAFIYTPTGTHFCEVEQIRNGPPVIHSGIKDLKVLKTTQSGFEGFIKDQFTTLPEVKDRCFATQVYCKWRYHQGRDVDFEATWDTVRSIVLQKFAGPYDKGEYSPSVQKTLYDIQVLTLGQVPEIEDMEISLPNIHYLNIDMSKMGLINKEEVLLPLDNPYGKITGTVKRKLSSRL
modifications: monomethoxy PEG conjugated; Krystexxa Sequence
notes: covalent conjugate of uricase produced by a genetically modified strain of Escherichia coli and monomethoxypoly (ethylene glycol)
HAQ-DI, Observed, Mean (SD) (Day 1, n=13): 0.8 (0.77)
HAQ-DI, Observed, Median (Day 1, n=13): 0.5
HAQ-Health, Observed, Mean (SD) (Day 1, n=13): 37.8 (27.06)
HAQ-Health, Observed, Median (Day 1, n=13): 25.0
HAQ-Pain, Observed, Mean (SD) (Day 1, n=13): 42.5 (22.24)
HAQ-Pain, Observed, Median (Day 1, n=13): 40.0
HAQ-DI, Change from Baseline, Mean (SD) [1]: 0.1 (0.27)
HAQ-DI, Change from Baseline, Median [1]: 0.0
HAQ-Health, Change from Baseline, Mean (SD) [1]: −8.8 (38.29)
HAQ-Health, Change from Baseline, Median [1]: 10.0
HAQ-Pain, Change from Baseline, Mean (SD) [1]: 2.3 (19.93)
HAQ-Pain, Change from Baseline, Median [1]: 0.0
HAQ-DI, Change from Baseline, Mean (SD) [2]: 0.2 (0.90)
HAQ-DI, Change from Baseline, Median [2]: −0.3
HAQ-Health, Change from Baseline, Mean (SD) [2]: −0.7 (16.77)
HAQ-Health, Change from Baseline, Median [2]: 8.0
HAQ-Pain, Change from Baseline, Mean (SD) [2]: 19.0 (36.51)
HAQ-Pain, Change from Baseline, Median [2]: 7.0
HAQ-DI, Change from Baseline, Mean (SD) [3]: 0.2 (0.56)
HAQ-DI, Change from Baseline, Median [3]: 0.1
HAQ-Health, Change from Baseline, Mean (SD) [3]: −11.7 (62.52)
HAQ-Health, Change from Baseline, Median [3]: −10.0
HAQ-Pain, Change from Baseline, Mean (SD) [3]: 0.0 (45.83)
HAQ-Pain, Change from Baseline, Median [3]: −10.0
HAQ-DI, Observed, Mean (SD) (Early Termination Visit, n=3): 0.7 (0.51)
HAQ-DI, Observed, Median (Early Termination Visit, n=3): 0.6
HAQ-Health, Observed, Mean (SD) (Early Termination Visit, n=3): 28.3 (40.72)
HAQ-Health, Observed, Median (Early Termination Visit, n=3): 10.0
HAQ-Pain, Observed, Mean (SD) (Early Termination Visit, n=3): 46.7 (40.41)
HAQ-Pain, Observed, Median (Early Termination Visit, n=3): 40.0
HAQ-DI, Change from Baseline, Mean (SD) [4]: −0.1 (0.35)
HAQ-DI, Change from Baseline, Median [4]: −0.1
HAQ-Health, Change from Baseline, Mean (SD) [4]: −80.0 (0.00)
HAQ-Health, Change from Baseline, Median [4]: −80.0
HAQ-Pain, Change from Baseline, Mean (SD) [4]: 2.5 (74.25)
HAQ-Pain, Change from Baseline, Median [4]: 2.5
HAQ-DI, Change from Baseline, Mean (SD) [5]: −0.1 (0.35)
HAQ-DI, Change from Baseline, Median [5]: −0.1
HAQ-Health, Change from Baseline, Mean (SD) [5]: −45.0 (49.50)
HAQ-Health, Change from Baseline, Median [5]: −45.0
HAQ-Pain, Change from Baseline, Mean (SD) [5]: 2.5 (74.25)
HAQ-Pain, Change from Baseline, Median [5]: 2.5
HAQ-DI, Observed, Mean (SD) [6]: 0.1 (0.18)
HAQ-DI, Observed, Median [6]: 0.1
HAQ-Health, Observed, Mean (SD) [6]: 0.0 (0.00)
HAQ-Health, Observed, Median [6]: 0.0
HAQ-Pain, Observed, Mean (SD) [6]: 40.0 (56.57)
HAQ-Pain, Observed, Median [6]: 40.0
HAQ-DI, Observed, Mean (SD) (Week 14, n=14): 0.5 (0.41)
HAQ-DI, Observed, Median (Week 14, n=14): 0.5
HAQ-Health, Observed, Mean (SD) (Week 14, n=14): 36.6 (33.87)
HAQ-Health, Observed, Median (Week 14, n=14): 16.5
HAQ-Pain, Observed, Mean (SD) (Week 14, n=14): 27.1 (26.25)
HAQ-Pain, Observed, Median (Week 14, n=14): 15.0
HAQ-DI, Change from Baseline, Mean (SD) [7]: −0.2 (0.77)
HAQ-DI, Change from Baseline, Median [7]: 0.0
HAQ-Health, Change from Baseline, Mean (SD) [7]: −12.5 (36.79)
HAQ-Health, Change from Baseline, Median [7]: −5.0
HAQ-Pain, Change from Baseline, Mean (SD) [7]: −13.9 (30.48)
HAQ-Pain, Change from Baseline, Median [7]: −12.5
